Data on twelve molecules can be found in patent publication US20240034762A1 (YALE UNIVERSITY, published 2024).

Substitutions are numbered along the chain they refer to. Names may count otherwise. No end group written: not given here.

T1: full-length human α-Klotho with a C-terminal HA-tag on HEK293 cells stably co-expressing FGFR1c (human) (UniProt Q9UEF7)
T1 sequence: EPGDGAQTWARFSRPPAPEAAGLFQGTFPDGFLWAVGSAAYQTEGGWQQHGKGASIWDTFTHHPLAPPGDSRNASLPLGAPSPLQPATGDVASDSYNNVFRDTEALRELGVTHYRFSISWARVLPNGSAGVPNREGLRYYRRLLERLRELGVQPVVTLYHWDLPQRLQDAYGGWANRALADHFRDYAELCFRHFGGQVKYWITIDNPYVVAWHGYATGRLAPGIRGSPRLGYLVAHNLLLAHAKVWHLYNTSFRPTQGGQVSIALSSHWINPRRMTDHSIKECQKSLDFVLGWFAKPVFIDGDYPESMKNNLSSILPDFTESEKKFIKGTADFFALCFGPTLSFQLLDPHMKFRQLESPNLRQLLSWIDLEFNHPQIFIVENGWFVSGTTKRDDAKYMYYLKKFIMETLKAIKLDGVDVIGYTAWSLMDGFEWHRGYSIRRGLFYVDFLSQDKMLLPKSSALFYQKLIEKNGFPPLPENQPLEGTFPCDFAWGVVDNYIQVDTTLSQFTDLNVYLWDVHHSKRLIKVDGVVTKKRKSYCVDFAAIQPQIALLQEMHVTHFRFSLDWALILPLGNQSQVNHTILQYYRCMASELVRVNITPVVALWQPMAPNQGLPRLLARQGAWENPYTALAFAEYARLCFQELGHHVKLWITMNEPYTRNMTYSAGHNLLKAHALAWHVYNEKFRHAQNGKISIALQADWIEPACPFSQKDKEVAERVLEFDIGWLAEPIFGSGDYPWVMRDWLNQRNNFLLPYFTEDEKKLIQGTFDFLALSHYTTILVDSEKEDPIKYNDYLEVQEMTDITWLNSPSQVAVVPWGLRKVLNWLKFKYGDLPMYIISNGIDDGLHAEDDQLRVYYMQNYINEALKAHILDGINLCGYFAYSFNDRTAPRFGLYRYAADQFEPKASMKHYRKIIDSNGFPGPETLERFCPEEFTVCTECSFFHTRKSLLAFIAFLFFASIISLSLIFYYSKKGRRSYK

T2: soluble extracellular domain of human α-Klotho (aa 1-980) fused to a 6xHis tag (human, UniProt Q9UEF7 34-980)
T2 construct: Secreted from HEK293 EBNA cells; also called sKLA; soluble α-Klotho
T2 sequence: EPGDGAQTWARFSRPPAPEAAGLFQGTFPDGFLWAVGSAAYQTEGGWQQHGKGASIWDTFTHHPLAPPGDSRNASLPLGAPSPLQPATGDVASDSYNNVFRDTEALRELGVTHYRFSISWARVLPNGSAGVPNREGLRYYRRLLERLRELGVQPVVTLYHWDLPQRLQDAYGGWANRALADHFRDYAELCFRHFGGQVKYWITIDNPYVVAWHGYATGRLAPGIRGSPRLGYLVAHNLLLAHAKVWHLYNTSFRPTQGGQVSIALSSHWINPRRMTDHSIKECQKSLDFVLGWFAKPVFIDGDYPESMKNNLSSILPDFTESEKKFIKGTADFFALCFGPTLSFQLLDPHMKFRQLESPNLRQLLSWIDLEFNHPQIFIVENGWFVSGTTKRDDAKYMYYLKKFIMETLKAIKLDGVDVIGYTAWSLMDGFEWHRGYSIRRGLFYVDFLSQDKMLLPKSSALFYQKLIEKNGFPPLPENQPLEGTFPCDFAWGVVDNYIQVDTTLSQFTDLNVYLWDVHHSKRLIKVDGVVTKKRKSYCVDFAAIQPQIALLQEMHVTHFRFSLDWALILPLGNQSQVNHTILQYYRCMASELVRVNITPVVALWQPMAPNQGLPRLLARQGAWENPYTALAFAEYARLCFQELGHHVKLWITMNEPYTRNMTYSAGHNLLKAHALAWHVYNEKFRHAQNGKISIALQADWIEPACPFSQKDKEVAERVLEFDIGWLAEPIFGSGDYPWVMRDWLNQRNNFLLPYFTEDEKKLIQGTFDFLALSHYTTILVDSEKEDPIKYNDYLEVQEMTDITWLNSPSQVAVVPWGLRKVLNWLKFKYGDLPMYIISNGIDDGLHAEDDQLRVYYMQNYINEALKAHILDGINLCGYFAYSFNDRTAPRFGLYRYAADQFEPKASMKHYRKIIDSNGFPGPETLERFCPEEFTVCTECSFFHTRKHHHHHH

T3: full-length human α-Klotho with a C-terminal HA-tag on HEK293 cells stably co-expressing FGFR1c (human, UniProt Q9UEF7 34-1012)
T3 sequence: T1 sequence

B1: human IgG1 Fc fused to the full-length C-terminal tail of human FGF23 (aa 180-251) (Fc fusion, not shown: a dimerising Fc or GST)
chain: SAEDDSERDPLNVLKPRARMTPAPASCSQELPSAEDNSPMASDPLGVVRGGRVNTHAGGTGPEGCRPFAKFI
B2: human IgG1 Fc fused to R1 (aa 180-205) of human FGF23 (Fc fusion, not shown: a dimerising Fc or GST)
chain: SAEDDSERDPLNVLKPRARMTPAPAS
modifications: not fully specified (N-terminus); also: dimeric Fc fusion protein, Fc-R1 junction/linker not given here
B3: FLAG-tagged human FGF23 D188A mutant expressed in Expi293F cells (ligand)
chain: DYKDDDDKYPNASPLLGSSWGGLIHLYTATARNSYHLQIHKNGHVDGAPHQTIYSALMIRSEDAGFVVITGVMSRRYLCMDFRGNIFGSHYFDPENCRFQHQTLENGYDVYHSPQYHFLVSLGAAKAAFLPGMNPPPYSQFLSRRNEIPLIHFNTPIPRQHTQSAEDDSERAPLNVLKPRARMTPAPASCSQELPSAEDNSPMASDPLGVVRGGRVNTHAGGTGPEGCRPFAKFI
B4: FLAG-tagged human FGF23 C206S/C244S/D188A mutant expressed in Expi293F cells (ligand)
chain: B3 chain with C190S, C228S
notes: also called FGF23-CS D188A
B5: FLAG-tagged human FGF23 C206S/C244S mutant expressed in Expi293F cells (ligand)
chain: B3 chain with A172D, C190S, C228S
modifications: O-linked glycosylation (sites not given)
notes: also called FGF23-CS; mFGF23-CS
B6: FLAG-tagged human FGF23 (aa 25-251) expressed in Expi293F cells (ligand)
chain: B3 chain with A172D
modifications: O-linked glycosylation (sites not given); Cys206-Cys244 disulfide bridge
notes: also called FGF23-WT; mFGF23-WT
B7: full length human FGF23 (aa 25-251) expressed in E. coli (ligand)
chain: YPNASPLLGSSWGGLIHLYTATARNSYHLQIHKNGHVDGAPHQTIYSALMIRSEDAGFVVITGVMSRRYLCMDFRGNIFGSHYFDPENCRFQHQTLENGYDVYHSPQYHFLVSLGAAKAAFLPGMNPPPYSQFLSRRNEIPLIHFNTPIPRQHTQSAEDDSERDPLNVLKPRARMTPAPASCSQELPSAEDNSPMASDPLGVVRGGRVNTHAGGTGPEGCRPFAKFI
B8: human FGF23-R1 (aa 25-205) expressed in E. coli (ligand)
chain: YPNASPLLGSSWGGLIHLYTATARNSYHLQIHKNGHVDGAPHQTIYSALMIRSEDAGFVVITGVMSRRYLCMDFRGNIFGSHYFDPENCRFQHQTLENGYDVYHSPQYHFLVSLGAAKAAFLPGMNPPPYSQFLSRRNEIPLIHFNTPIPRQHTQSAEDDSERDPLNVLKPRARMTPAPAS
B9: GST fusion of repeat 1 (R1, aa 180-205) of the human FGF23 C-terminal tail (other)
chain: SAEDDSERDPLNVLKPRARMTPAPAS
modifications: also: GST fusion partner (recombinant, not part of given chain)
notes: Expressed in E. coli; also called GST-R1; not shown: glutathione S-transferase encoded by the pGEX4T1 vector (GE Healthcare)
B10: GST fusion of the full-length C-terminal tail of human FGF23 (aa 180-251) (other)
chain: B1 chain
notes: Expressed in E. coli BL21-Gold (DE3); also called GST-FL; FL tail of FGF23; not shown: glutathione S-transferase encoded by the pGEX4T1 vector (GE Healthcare)
B11: GST fusion of repeat 2 (R2) of the human FGF23 C-terminal tail (other)
chain: SAEDNSPMASDPLGVVRGGRVNTHAGGTGPEG
modifications: not fully specified; also: fused to glutathione S-transferase (pGEX4T1), vector linker residues not given here
notes: The plasmid limits are used here; also called GST-R2; not shown: glutathione S-transferase encoded by the pGEX4T1 vector (GE Healthcare)

In the first assay the target is T1, full-length human α-Klotho with a C-terminal HA-tag on HEK293 cells stably co-expressing FGFR1c (human). As to the kind of experiment: cell-based or functional assay.
Molecule B1 registered a complete inhibition of FGF23-induced MAPK stimulation in HEK293 cells co-expressing α-Klotho and FGFR1c of 100 to 250 nM.
For the molecule B2, the complete inhibition of FGF23-induced MAPK stimulation in HEK293 cells co-expressing α-Klotho and FGFR1c was 100 to 250 nM.
On to {human IgG1 Fc (aa 223-449)}-SAEDNSPMASDPLGVVRGGRVNTHAGGTGPEG (Fc fusion, not shown: a dimerising Fc or GST, also: R2 given as aa 212-243 or S212-T239) [human IgG1 Fc fused to R2 of human FGF23], for which the complete inhibition of FGF23-induced MAPK stimulation in HEK293 cells co-expressing α-Klotho and FGFR1c was in the range of 100 to 250 nM.

In another assay the target is T2, soluble extracellular domain of human …. As to the kind of experiment: BLI; FLAG-tagged FGF23 captured by anti-FLAG M2 on anti-mouse Fc sensors, sKLA 6.25-200 nM as analyte, 1:1 fit. How it is done:
FIG. 10A: BLI sensorgrams of binding of FGF23-WT, FGF23-CS, FGF23 D188A, and FGF23-CS D188A to sKLA. Biosensors coated with anti-mouse-Fc antibody was used to immobilize anti-Flag antibody followed by capturing Flag-tagged FGF23-WT or FGF23-CS. Biosensors were then dipped into solutions containing a series of concentrations of sKLA (200, 100, 50, 25, 12.5, and 6.25 nM). The resulting sensorgrams were fitted with a 1:1 ligand:receptor binding model to calculate kinetic parameters and dissociation constants. FIGS. 10B-10C: HEK293 cells stably expressing FGFR1c together with α-Klotho were left unstimulated or stimulated with increasing concentrations of FGF23-WT or FGF23-CS mutant, as indicated, for 10 minutes at 37° C. Cell lysates were subjected to SDS-PAGE and analyzed for serine phosphorylation of FGFR1, tyrosine phosphorylation of FRS2 and for MAPK activation by immunoblotting with anti-FGFR1-pS, anti-pFRS2 and anti-pMAPK antibodies, respectively and with anti-MAPK as a control. FIG. 10D: Schematic diagram depicting the bivalency of the C-terminal tail of FGF23 binding to α-Klotho.
(§1) Kinetic parameters and dissociation constants of sKLA binding to the various forms of full length FGF23 or GST-fused C-terminal fragments of FGF23 were studied using Bio-Layer Interferometry (BLI). Octet RED96 system (Pall ForteBio) equipped with anti-mouse IgG Fc (AMC) biosensors was used to study interactions between α-Klotho and FLAG-tagged FGF23. Biosensor tips were loaded with anti-FLAG M2 antibody (Millipore Sigma) at 5 μg/ml for 2 min, washed in BLI buffer (25 mM HEPES, 150 mM NaCl, pH 7.5, 0.002% Tween-20, 1 mg/mL BSA) for 60 s, and then loaded with FLAG-tagged FGF23 at 5 μg/ml for 4 min. Alternatively, anti-GST biosensor tips were loaded with 5 ug/ml GST fused with various FGF23 C-terminal fragments for 15 s. Subsequently, ligand-loaded sensor tips were dipped into microplate wells containing different sKLA concentrations, ranging from 6.25 nM to 200 nM in 2-fold dilutions of BLI buffer. After each binding cycle the sensor tips were regenerated with 10 mM glycine (pH 1.5). The collected data were referenced using a parallel buffer control subtraction, and sensograms were fitted globally to a 1:1 Langmuir binding model using ForteBio Data Analysis 10.0 software provided by the manufacturer.
(BLI is a label-free optical method that tracks binding on a fibre tip over time.)
Consider B3, for which the Kd is 13 nM, the koff was 0.0036 s⁻¹ and the kon worked out at 280000 M⁻¹ s⁻¹.
In turn, B4 came in with a Kd of 18 nM, a koff of 0.0044 s⁻¹ and a kon of 250000 M⁻¹ s⁻¹.
Take B5: the Kd turned out to be 18 nM, the koff came out at 0.0042 s⁻¹ and the kon was determined as 230000 M⁻¹ s⁻¹.
As for B6, the Kd stood at 14 nM, the koff came out at 0.0034 s⁻¹ and the kon was determined as 260000 M⁻¹ s⁻¹.

In the next assay the target is T3, full-length human α-Klotho with a …. The assay is described as follows: cell-based or functional assay.
Turning to B7, the “activation of MAPK response in HEK293 cells co-expressing FGFR1c and α-Klotho; ligand concentration at saturation” value came to 0.1 nM.
Consider B8, for which the “activation of MAPK response in HEK293 cells co-expressing FGFR1c and α-Klotho; ligand concentration at saturation” value came out at 0.1 nM.

For a further assay, the target named is T2, soluble extracellular domain of human …. As to the kind of experiment: BLI (Octet); GST fusion captured on anti-GST biosensor, sKLA in solution at 6.25-200 nM, 1:1 fit, mean ± S.D. of 3 experiments. On the procedure: as §1
To examine the significance of each of the two FGF23 repeats in α-Klotho binding and receptor activation, bio-layer interferometry (BLI) analyses was applied to measure the kinetic parameters and dissociation constants of each repeat alone or the entire C-terminal tail of FGF23 towards sKLA. To that end, GST-fusion proteins expressing either full length (FL) tail of FGF23 (amino acids […]), the first repeat R1 (amino acids S180-S205), or the second repeat R2 (amino acids […]) were produced in E. coli (FIG. 6) and immobilized on BLI sensors. sKLA was produced in HEK293 EBNA cells and used as an analyte in the BLI measurements (see elsewhere herein).
Take B9: binding was characterised by a dissociation constant (Kd) of 20 nM, the koff came to 0.0041 s⁻¹ and the kon was 210000 M⁻¹ s⁻¹.
The corresponding values for B10 are 15 nM, 0.0031 s⁻¹ and 210000 M⁻¹ s⁻¹.
B11 gave a Kd of 17 nM, a koff of 0.0034 s⁻¹ and a kon of 200000 M⁻¹ s⁻¹.

One may read the Kd as the free concentration of one partner at which half of the binding sites on the other are occupied at equilibrium, for simple one-to-one binding. A word on the koff: it is the first-order rate constant of dissociation. A low value points to slow dissociation. Broadly, the kon is the second-order rate constant of association.
